Experimental data: patent US20100260668A1 (published 2010)
Blank lines part the entries; values can stand above or below the binder they belong to.

Assays:
[1] = molecular target: T1, placental growth factor (PLGF) (UniProt P49763-2 21-149, limits assumed); test: ligand-receptor binding competition assay, PlGF binding to VEGFR1; N-terminal VD
T1 construct: also called P1GF
T1 sequence (looked up): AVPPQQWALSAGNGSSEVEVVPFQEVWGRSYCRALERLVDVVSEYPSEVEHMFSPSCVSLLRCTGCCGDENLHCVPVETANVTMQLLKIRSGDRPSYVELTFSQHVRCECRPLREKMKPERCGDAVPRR

VEGF = molecular target: T2, VEGF (UniProt P15692 27-191, limits assumed); test: direct bind ELISA, N-terminal VD
T2 construct: bought antigen coated on the ELISA plate
T2 sequence (P15692 other isoform, or with tags, fused parts or gaps limits assumed): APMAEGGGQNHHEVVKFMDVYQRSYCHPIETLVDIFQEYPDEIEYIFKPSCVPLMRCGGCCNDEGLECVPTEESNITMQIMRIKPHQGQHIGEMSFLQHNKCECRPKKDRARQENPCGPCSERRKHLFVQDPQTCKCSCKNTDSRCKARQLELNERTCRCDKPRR

PlGF = molecular target: T3, PlGF (UniProt P49763-2 21-149, limits assumed); test: direct bind ELISA, C-terminal VD
T3 construct: bought antigen coated on the ELISA plate; also called Placental GF
T3 sequence (looked up): T1 sequence (looked up)
Description: Enzyme Linked Immunosorbent Assays to screen for antibodies that bind a desired target antigen were performed as follows. […] Plates were washed four times with PBS containing 0.02% Tween 20. Plates were blocked by the addition of 300 μL/well blocking solution (non-fat dry milk powder, various retail suppliers, diluted to 2% in PBS) for ½ hour at room temperature. Plates were washed four times after blocking with PBS containing 0.02% Tween 20.
Plates were washed 4 times with PBS containing 0.02% Tween 20.

HGF = molecular target: T4, HGF (UniProt P14210 32-728); test: Biacore SPR
T4 construct: Bought reagent
T4 sequence (P14210 32-728 limits assumed): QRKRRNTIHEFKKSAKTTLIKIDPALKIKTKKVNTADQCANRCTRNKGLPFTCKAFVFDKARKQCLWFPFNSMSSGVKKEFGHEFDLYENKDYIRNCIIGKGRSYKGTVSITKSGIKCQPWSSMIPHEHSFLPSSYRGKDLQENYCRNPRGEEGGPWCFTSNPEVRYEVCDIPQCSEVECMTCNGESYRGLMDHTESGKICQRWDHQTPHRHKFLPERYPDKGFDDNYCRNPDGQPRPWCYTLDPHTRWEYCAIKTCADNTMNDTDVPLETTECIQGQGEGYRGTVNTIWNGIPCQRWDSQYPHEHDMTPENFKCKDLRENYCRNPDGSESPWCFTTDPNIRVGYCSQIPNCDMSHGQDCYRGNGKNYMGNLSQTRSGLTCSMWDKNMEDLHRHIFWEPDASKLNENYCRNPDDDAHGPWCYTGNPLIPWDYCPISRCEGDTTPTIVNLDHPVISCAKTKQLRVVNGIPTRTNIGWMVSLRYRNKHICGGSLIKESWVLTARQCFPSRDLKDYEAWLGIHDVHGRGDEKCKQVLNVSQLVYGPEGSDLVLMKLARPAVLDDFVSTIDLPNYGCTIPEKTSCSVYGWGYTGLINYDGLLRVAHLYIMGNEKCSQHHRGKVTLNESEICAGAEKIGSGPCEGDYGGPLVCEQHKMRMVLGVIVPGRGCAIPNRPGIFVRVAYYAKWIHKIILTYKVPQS
Description: The BIACORE assay (Biacore, Inc, Piscataway, N.J.) determines the affinity of antibodies or DVD-Ig with kinetic measurements of on-rate and off-rate constants. Binding of antibodies or DVD-Ig to a target antigen (for example, a purified recombinant target antigen) is determined by surface plasmon resonance-based measurements with a Biacore® 1000 or 3000 instrument (Biacore® AB, Uppsala, Sweden) using running HBS-EP (10 mM HEPES [pH 7.4], 150 mM NaCl, 3 mM EDTA, and 0.005% surfactant P20) at 25° C. […] For example, approximately 5000 RU of goat anti-mouse IgG, (Fcγ), fragment specific polyclonal antibody (Pierce Biotechnology Inc, Rockford, Ill.) diluted in 10 mM sodium acetate (pH 4.5) is directly immobilized across a CM5 research grade biosensor chip using a standard amine coupling kit according to manufacturer's instructions and procedures at 25 μg/ml. Unreacted moieties on the biosensor surface are blocked with ethanolamine. Modified carboxymethyl dextran surface in flowcell 2 and 4 is used as a reaction surface. Unmodified carboxymethyl dextran without goat anti-mouse IgG in flow cell 1 and 3 is used as the reference surface. For kinetic analysis, rate equations derived from the 1:1 Langmuir binding model are fitted simultaneously to association and dissociation phases of all eight injections (using global fit analysis) with the use of Biaevaluation 4.0.1 software. Purified antibodies or DVD-Ig are diluted in HEPES-buffered saline for capture across goat anti-mouse IgG specific reaction surfaces. Antibodies or DVD-Ig to be captured as a ligand (25 μg/ml) are injected over reaction matrices at a flow rate of 5 μl/min. The association and dissociation rate constants, kₒₙ (M⁻¹s⁻¹) and koff (s⁻¹) are determined under a continuous flow rate of 25 μl/min. Rate constants are derived by making kinetic binding measurements at different antigen concentrations ranging from 10-200 nM. The equilibrium dissociation constant (M) of the reaction between antibodies or DVD-Igs and the target antigen is then calculated from the kinetic rate constants by the following formula: KD=koff/kₒₙ. Binding is recorded as a function of time and kinetic rate constants are calculated.

recombinant human HGF = recombinant human HGF (human, UniProt P14210 32-728); test: cell-based or functional assay
Sequence of recombinant human HGF (P14210 32-728 limits assumed): as above

[2] = molecular target: recombinant human VEGF165 (human, UniProt P15692-4 27-191); test: cell-based or functional assay
Sequence of recombinant human VEGF165 (P15692 other isoform, or with tags, fused parts or gaps limits assumed): as the sequence (P15692 other isoform, or with tags, fused parts or gaps limits assumed) above

IC50 [1]: 2.59 nM
B1: DVD573 (bispecific antibody, human IgG1, kappa)
heavy: not shown
light: DIVLTQSPDSLAVSLGERVTMNCKSSQSLLNSGMRKSFLAWYQQKPGQSPKLLIYWASTRESGVPDRFTGSGSGTDFTLTISSVQAEDVAVYYCKQSYHLFTFGSGTKLEIKRTVAAPDIQMTQSPSSLSASVGDRVTITCRASQDVSTAVAWYQQKPGKAPKLLIYSASFLYSGVPSRFSGSGSGTDFTLTISSLQPEDFATYYCQQSYTTPPTFGQGTKVEIKRTVAAPSVFIFPPSDEQLKSGTASVVCLLNNFYPREAKVQWKVDNALQSGNSQESVTEQDSKDSTYSLSSTLTLSKADYEKHKVYACEVTHQGLSSPVTKSFNRGEC
notes: also called DVD573H; DVD573L

EC50 (VEGF): 17.6 nM
EC50 (PlGF): 1.44 nM
B2: DVD570 (bispecific antibody, human IgG1, kappa)
heavy: not shown
light: DIQMTQSPSSLSASVGDRVTITCRASQVIRRSLAWYQQKPGKAPKLLIYAASNLASGVPSRFSGSGSGTDFTLTISSLQPEDFATYYCQQSNTSPLTFGQGTKVEIKRTVAAPSVFIFPPAIQMTQSSSSFSVSLGDRVTITCKASEDIYNRFAWYQQKPGNAPRLLISGAASLEAGVPSRFSGSGSGQDYTLSITSLQTEDVATYYCQQYWSTPWTFGGGTKLEIKRTVAAPSVFIFPPSDEQLKSGTASVVCLLNNFYPREAKVQWKVDNALQSGNSQESVTEQDSKDSTYSLSSTLTLSKADYEKHKVYACEVTHQGLSSPVTKSFNRGEC
notes: outer AB071 (VEGF), inner AB074 (PlGF); HC linker short, LC linker long; also called DVD-Ig DVD570

inhibition of HUVEC proliferation (IC50) [2]: 0.42 nM
B5: DVD474 (bispecific antibody, human IgG1, kappa)
heavy: not shown
light: DIQMTQSPSSLSASVGDRVTITCRASQVIRRSLAWYQQKPGKAPKLLIYAASNLASGVPSRFSGSGSGTDFTLTISSLQPEDFATYYCQQSNTSPLTFGQGTKVEIKRTVAAPSVFIFPPDIQMTQSPSSLSASVGDRVTITCRASQDVSTAVAWYQQKPGKAPKLLIYSASFLYSGVPSRFSGSGSGTDFTLTISSLQPEDFATTYYCQQSYTGTVTFGQGTKVEIKRTVAAPSVFIFPPSDEQLKSGTASVVCLLNNFYPREAKVQWKVDNALQSGNSQESVTEQDSKDSTYSLSSTLTLSKADYEKHKVYACEVTHQGLSSPVTKSFNRGEC

inhibition of HUVEC proliferation (IC50) [2]: 0.88 nM
B6: DVD486 (bispecific antibody, human IgG1, kappa)
heavy: not shown
light: B5 light

inhibition of HUVEC proliferation (IC50) [2]: 0.24 nM
B7: DVD476 (bispecific antibody, human IgG1, kappa)
heavy: not shown
light: DIQMTQSPSSLSASVGDRVTITCSASQDISNYLNWYQQKPGKAPKVLIYFTSSLHSGVPSRFSGSGSGTDFTLTISSLQPEDFATYYCQQYSTVPWTFGQGTKVEIKRTVAAPDIQMTQSPSSLSASVGDRVTITCRASQDVSTAVAWYQQKPGKAPKLLIYSASFLYSGVPSRFSGSGSGTDFTLTISSLQPEDFATTYYCQQSYTGTVTFGQGTKVEIKRTVAAPSVFIFPPSDEQLKSGTASVVCLLNNFYPREAKVQWKVDNALQSGNSQESVTEQDSKDSTYSLSSTLTLSKADYEKHKVYACEVTHQGLSSPVTKSFNRGEC

inhibition of HUVEC proliferation (IC50) [2]: 6.8 nM
B8: DVD471 (bispecific antibody, human IgG1, kappa, L234A L235A)
heavy: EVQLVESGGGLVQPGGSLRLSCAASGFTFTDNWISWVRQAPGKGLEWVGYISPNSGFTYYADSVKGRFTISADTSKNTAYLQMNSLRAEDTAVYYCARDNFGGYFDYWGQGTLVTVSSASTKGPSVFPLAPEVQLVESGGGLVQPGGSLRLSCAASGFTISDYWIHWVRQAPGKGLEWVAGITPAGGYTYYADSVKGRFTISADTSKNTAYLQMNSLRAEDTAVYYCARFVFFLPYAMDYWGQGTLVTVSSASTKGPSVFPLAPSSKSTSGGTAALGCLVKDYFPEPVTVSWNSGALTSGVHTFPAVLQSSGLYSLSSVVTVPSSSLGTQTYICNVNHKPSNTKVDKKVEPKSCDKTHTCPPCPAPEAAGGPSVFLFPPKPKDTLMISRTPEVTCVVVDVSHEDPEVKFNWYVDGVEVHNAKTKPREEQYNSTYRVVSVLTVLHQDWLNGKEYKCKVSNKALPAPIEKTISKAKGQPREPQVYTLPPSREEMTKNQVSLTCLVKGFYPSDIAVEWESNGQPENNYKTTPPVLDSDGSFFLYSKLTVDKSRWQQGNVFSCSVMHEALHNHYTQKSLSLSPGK
light: DIQMTQSPSSLSASVGDRVTITCRASQDVSTAVAWYQQKPGKAPKLLIYSASFLYSGVPSRFSGSGSGTDFTLTISSLQPEDFATTYYCQQSYTGTVTFGQGTKVEIKRTVAAPSVFIFPPDIQMTQSPSSLSASVGDRVTITCRASQDVSTAVAWYQQKPGKAPKLLIYSASFLYSGVPSRFSGSGSGTDFTLTISSLQPEDFATYYCQQSYTTPPTFGQGTKVEIKRTVAAPSVFIFPPSDEQLKSGTASVVCLLNNFYPREAKVQWKVDNALQSGNSQESVTEQDSKDSTYSLSSTLTLSKADYEKHKVYACEVTHQGLSSPVTKSFNRGEC

inhibition of HUVEC proliferation (IC50) [2]: 0.32 nM
B10: DVD482 (bispecific antibody, human IgG1, kappa)
heavy: not shown
light: DIQMTQSPSSLSASVGDRVTITCSASQDISNYLNWYQQKPGKAPKVLIYFTSSLHSGVPSRFSGSGSGTDFTLTISSLQPEDFATYYCQQYSTVPWTFGQGTKVEIKRTVAAPSVFIFPPDIQMTQSPSSLSASVGDRVTITCRASQDVSTAVAWYQQKPGKAPKLLIYSASFLYSGVPSRFSGSGSGTDFTLTISSLQPEDFATTYYCQQSYTGTVTFGQGTKVEIKRTVAAPSVFIFPPSDEQLKSGTASVVCLLNNFYPREAKVQWKVDNALQSGNSQESVTEQDSKDSTYSLSSTLTLSKADYEKHKVYACEVTHQGLSSPVTKSFNRGEC

inhibition of HUVEC proliferation (IC50) [2]: 59.5 nM
B13: DVD485 (bispecific antibody, human IgG1, kappa)
heavy: not shown
light: DIQMTQSPSSLSASVGDRVTITCRASQDVSTAVAWYQQKPGKAPKLLIYSASFLYSGVPSRFSGSGSGTDFTLTISSLQPEDFATTYYCQQSYTGTVTFGQGTKVEIKRTVAAPSVFIFPPDIQMTQSPSSLSASVGDRVTITCRASQVIRRSLAWYQQKPGKAPKLLIYAASNLASGVPSRFSGSGSGTDFTLTISSLQPEDFATYYCQQSNTSPLTFGQGTKVEIKRTVAAPSVFIFPPSDEQLKSGTASVVCLLNNFYPREAKVQWKVDNALQSGNSQESVTEQDSKDSTYSLSSTLTLSKADYEKHKVYACEVTHQGLSSPVTKSFNRGEC

The next lines start with the binder.

B3: DVD034 (bispecific antibody, human IgG1, kappa)
heavy: not shown
light: DIQMTQSPSSVSASVGDRVTITCRASQGISSWLAWYQQKPGKAPNLLIYEASSLQSGVPSRFGGSGSGTDFTLTISSLQPEDFATYYCQQANGFPWTFGQGTKVEIKRTVAAPDVVMTQSPLSLPVTPGEPASISCRSSQSLLHSNGFNYVDWYLQKPGQSPHLLIYFGSYRASGVPDRFSGSGSGTDFTLKISRVEAEDVGVYYCMQALQTPPWTFGQGTKVEIRRTVAAPSVFIFPPSDEQLKSGTASVVCLLNNFYPREAKVQWKVDNALQSGNSQESVTEQDSKDSTYSLSSTLTLSKADYEKHKVYACEVTHQGLSSPVTKSFNRGEC
notes: N-terminal VD HGF, C-terminal VD RON; also called DVD034H; DVD034L
Kd (HGF): 0.0215 nM
koff (HGF): 6.55e-05 s⁻¹
kon (HGF): 3.05e+06 M⁻¹ s⁻¹

B4: DVD045 (bispecific antibody, human IgG1, kappa)
heavy: not shown
light: DIQMTQSPSSLSASVGDRVTITCSASQDISNYLNWYQQKPGKAPKVLIYFTSSLHSGVPSRFSGSGSGTDFTLTISSLQPEDFATYYCQQYSTVPWTFGQGTKVEIKRTVAAPDIQMTQSPSSVSASVGDRVTITCRASQGISSWLAWYQQKPGKAPNLLIYEASSLQSGVPSRFGGSGSGTDFTLTISSLQPEDFATYYCQQANGFPWTFGQGTKVEIKRTVAAPSVFIFPPSDEQLKSGTASVVCLLNNFYPREAKVQWKVDNALQSGNSQESVTEQDSKDSTYSLSSTLTLSKADYEKHKVYACEVTHQGLSSPVTKSFNRGEC
Inhibition Of Akt Phosphorylation (% Inhibition At 0.67 nM Ab/DVD) (recombinant human HGF): -15%
Inhibition Of Akt Phosphorylation (% Inhibition At 6.7 nM Ab/DVD) (recombinant human HGF): -2%
Inhibition Of Akt Phosphorylation (% Inhibition At 67 nM Ab/DVD) (recombinant human HGF): 64%

B9: DVD470 (bispecific antibody, human IgG1, kappa)
heavy: not shown
light: B10 light
inhibition of HUVEC proliferation (IC50) [2]: 0.45 nM

B11: AB012 (antibody, human IgG1, kappa, V domains shown)
VH: QVQLVESGGGLVKPGGSLRLSCAASGFTFSDYYMSWIRQAPGKGLEWVSYISSSGSTIYYADSVKGRFTISRDNAKNSLYLQMNSLRAEDTAVYYCARDEYNSGWYVLFDYWGQGTLVTVSS
VL: DIQMTQSPSSVSASVGDRVTITCRASQGISSWLAWYQQKPGKAPNLLIYEASSLQSGVPSRFGGSGSGTDFTLTISSLQPEDFATYYCQQANGFPWTFGQGTKVEIKR
Inhibition Of Akt Phosphorylation (% Inhibition At 0.67 nM Ab/DVD) (recombinant human HGF): 79%
Inhibition Of Akt Phosphorylation (% Inhibition At 6.7 nM Ab/DVD) (recombinant human HGF): 110%
Inhibition Of Akt Phosphorylation (% Inhibition At 67 nM Ab/DVD) (recombinant human HGF): 106%

B12: AB012 (antibody, human IgG1, kappa, V domains shown)
VH: B11 VH
VL: B11 VL
Kd (HGF): < 0.0284 nM
koff (HGF): 0.000284 s⁻¹
kon (HGF): > 1e+07 M⁻¹ s⁻¹

B14: AB071 (antibody, human IgG1, kappa, L234A L235A, V domains shown)
VH: EVQLVESGGGLVQPGGSLRLSCAASGFTINASWIHWVRQAPGKGLEWVGAIYPYSGYTNYADSVKGRFTISADTSKNTAYLQMNSLRAEDTAVYYCARWGHSTSPWAMDYWGQGTLVTVSS
VL: DIQMTQSPSSLSASVGDRVTITCRASQVIRRSLAWYQQKPGKAPKLLIYAASNLASGVPSRFSGSGSGTDFTLTISSLQPEDFATYYCQQSNTSPLTFGQGTKVEIKR
inhibition of HUVEC proliferation (IC50) [2]: 2.5 nM

B15: AB008 (antibody, human IgG1, kappa, V domains shown)
VH: QVQLVQSGAEVKKPGSSVKVSCKASGYTFTSYWLHWVRQAPGQGLEWIGYINPRNDYTEYNQNFKDKATITADESTNTAYMELSSLRSEDTAFYFCARRDITTFYWGQGTTVTVSS
VL: DIQLTQSPSSLSASVGDRVTMSCKSSQSVLYSANHKNYLAWYQQKPGKAPKLLIYWASTRESGVPSRFSGSGSGTDFTFTISSLQPEDIATYYCHQYLSSWTFGGGTKLEIKR
Inhibition Of Akt Phosphorylation (% Inhibition At 6.7 nM Ab/DVD) (recombinant human HGF): -13%
Inhibition Of Akt Phosphorylation (% Inhibition At 67 nM Ab/DVD) (recombinant human HGF): 8%
